In IntAct's records for PubMed 24141787:

B1: Partner and localizer of BRCA2 (Homo sapiens), Q86YC2 (parent)
chain: MDEPPGKPLSCEEKEKLKEKLAFLKREYSKTLARLQRAQRAEKIKHSIKKTVEEQDCLSQQDLSPQLKHSEPKNKICVYDKLHIKTHLDEETGEKTSITLDVGPESFNPGDGPGGLPIQRTDDTQEHFPHRVSDPSGEQKQKLPSRRKKQQKRTFISQERDCVFGTDSLRLSGKRLKEQEEISSKNPARSPVTEIRTHLLSLKSELPDSPEPVTEINEDSVLIPPTAQPEKGVDTFLRRPNFTRATTVPLQTLSDSGSSQHLEHIPPKGSSELTTHDLKNIRFTSPVSLEAQGKKMTVSTDNLLVNKAISKSGQLPTSSNLEANISCSLNELTYNNLPANENQNLKEQNQTEKSLKSPSDTLDGRNENLQESEILSQPKSLSLEATSPLSAEKHSCTVPEGLLFPAEYYVRTTRSMSNCQRKVAVEAVIQSHLDVKKKGFKNKNKDASKNLNLSNEETDQSEIRMSGTCTGQPSSRTSQKLLSLTKVSSPAGPTEDNDLSRKAVAQAPGRRYTGKRKSACTPASDHCEPLLPTSSLSIVNRSKEEVTSHKYQHEKLFIQVKGKKSRHQKEDSLSWSNSAYLSLDDDAFTAPFHRDGMLSLKQLLSFLSITDFQLPDEDFGPLKLEKVKSCSEKPVEPFESKMFGERHLKEGSCIFPEELSPKRMDTEMEDLEEDLIVLPGKSHPKRPNSQSQHTKTGLSSSILLYTPLNTVAPDDNDRPTTDMCSPAFPILGTTPAFGPQGSYEKASTEVAGRTCCTPQLAHLKDSVCLASDTKQFDSSGSPAKPHTTLQVSGRQGQPTCDCDSVPPGTPPPIESFTFKENQLCRNTCQELHKHSVEQTETAELPASDSINPGNLQLVSELKNPSGSCSVDVSAMFWERAGCKEPCIITACEDVVSLWKALDAWQWEKLYTWHFAEVPVLQIVPVPDVYNLVCVALGNLEIREIRALFCSSDDESEKQVLLKSGNIKAVLGLTKRRLVSSSGTLSDQQVEVMTFAEDGGGKENQFLMPPEETILTFAEVQGMQEALLGTTIMNNIVIWNLKTGQLLKKMHIDDSYQASVCHKAYSEMGLLFIVLSHPCAKESESLRSPVFQLIVINPKTTLSVGVMLYCLPPGQAGRFLEGDVKDHCAAAILTSGTIAIWDLLLGQCTALLPPVSDQHWSFVKWSGTDSHLLAGQKDGNIFVYHYS
partner: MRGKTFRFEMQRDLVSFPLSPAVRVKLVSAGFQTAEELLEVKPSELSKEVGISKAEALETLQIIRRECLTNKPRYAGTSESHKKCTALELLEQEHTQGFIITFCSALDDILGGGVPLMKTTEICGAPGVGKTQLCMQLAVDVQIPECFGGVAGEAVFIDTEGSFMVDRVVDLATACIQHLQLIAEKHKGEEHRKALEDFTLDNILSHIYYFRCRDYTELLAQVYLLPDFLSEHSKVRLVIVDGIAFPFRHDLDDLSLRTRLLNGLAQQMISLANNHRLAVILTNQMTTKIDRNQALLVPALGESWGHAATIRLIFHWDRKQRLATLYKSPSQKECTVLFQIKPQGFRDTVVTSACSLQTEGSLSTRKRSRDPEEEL
B2: Partner and localizer of BRCA2 (Homo sapiens), Q86YC2 (parent)
chain: B1 chain
partner: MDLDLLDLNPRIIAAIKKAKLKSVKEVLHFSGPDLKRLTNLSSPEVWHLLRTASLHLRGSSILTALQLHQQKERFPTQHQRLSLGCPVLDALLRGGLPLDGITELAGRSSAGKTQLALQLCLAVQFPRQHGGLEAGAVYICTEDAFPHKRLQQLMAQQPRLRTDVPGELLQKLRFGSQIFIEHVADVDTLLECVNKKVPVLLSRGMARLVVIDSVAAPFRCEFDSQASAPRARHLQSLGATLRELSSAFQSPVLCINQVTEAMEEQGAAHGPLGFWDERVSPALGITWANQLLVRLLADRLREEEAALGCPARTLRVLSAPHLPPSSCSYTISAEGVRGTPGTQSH
B3: Partner and localizer of BRCA2 (Homo sapiens), Q86YC2 (parent)
chain: B1 chain

Variants of: B1
Details: with ra51c_human RAD51C

| Variant | effect of a mutation on the interaction |
| --- | --- |
| T1030I | decreasing interaction |

Variants of: B2
Details: with xrcc3_human XRCC3, O43542

| Variant | effect of a mutation on the interaction |
| --- | --- |
| L939W | decreasing interaction |

Variants of: B3
Details: with rad51_human RAD51, Q06609
rad51_human RAD51, Q06609, sequence (Q06609 whole entry): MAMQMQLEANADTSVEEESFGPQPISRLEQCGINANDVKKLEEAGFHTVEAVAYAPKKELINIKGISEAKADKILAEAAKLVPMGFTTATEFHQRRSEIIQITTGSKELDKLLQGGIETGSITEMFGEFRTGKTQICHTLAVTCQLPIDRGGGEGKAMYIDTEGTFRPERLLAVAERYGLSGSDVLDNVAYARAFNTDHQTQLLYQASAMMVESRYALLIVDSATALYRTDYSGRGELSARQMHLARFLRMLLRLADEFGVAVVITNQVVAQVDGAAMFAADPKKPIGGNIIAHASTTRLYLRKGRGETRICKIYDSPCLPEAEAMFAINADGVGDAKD

| Variant | effect of a mutation on the interaction |
| --- | --- |
| L939W | decreasing interaction |
| T1030I | decreasing interaction |
